# According to PMC5025710, “The N-terminal domain plays a crucial role in the structure of a full-length human mitochondrial Lon protease” (Scientific Reports, 2016):
# T1: hLonΔ270 mutant (Δ1–270), human Lon lacking its first 270 amino acids (human) (UniProt P36776)
# T1 sequence: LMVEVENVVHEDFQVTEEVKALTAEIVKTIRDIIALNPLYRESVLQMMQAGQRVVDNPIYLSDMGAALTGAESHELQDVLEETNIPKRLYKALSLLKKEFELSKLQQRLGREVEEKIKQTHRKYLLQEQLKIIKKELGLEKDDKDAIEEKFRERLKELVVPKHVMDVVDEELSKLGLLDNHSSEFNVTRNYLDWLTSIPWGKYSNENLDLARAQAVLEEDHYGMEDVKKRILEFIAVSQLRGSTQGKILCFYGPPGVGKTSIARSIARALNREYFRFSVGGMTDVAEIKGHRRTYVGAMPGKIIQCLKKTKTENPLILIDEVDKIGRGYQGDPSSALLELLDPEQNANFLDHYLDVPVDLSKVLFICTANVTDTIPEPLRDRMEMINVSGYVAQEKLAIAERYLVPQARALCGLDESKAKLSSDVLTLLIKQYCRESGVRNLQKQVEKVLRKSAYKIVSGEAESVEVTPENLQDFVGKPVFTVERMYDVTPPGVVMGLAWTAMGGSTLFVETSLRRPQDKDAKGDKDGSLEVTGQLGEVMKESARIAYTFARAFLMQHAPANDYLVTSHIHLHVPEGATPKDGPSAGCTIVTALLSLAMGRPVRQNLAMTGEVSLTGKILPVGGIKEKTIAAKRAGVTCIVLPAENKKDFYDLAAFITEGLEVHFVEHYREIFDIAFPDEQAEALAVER
# What was measured:
# [1] = target: proteolytically inactive human mitochondrial Lon protease mutant hLon S855A (human) (UniProt P36776); assay: cryo-EM structure; hLon S855A incubated with 1 mM ADP, 1 mg/ml diluted 5× in buffer B (20 mM HEPES pH 8.0, 150 mM NaCl, 5 mM MgCl2); map at 21 Å
# [2] = target: proteolytically inactive human mitochondrial Lon protease mutant hLon S855A (human) (UniProt P36776); assay: cryo-EM structure; hLon S855A incubated with 1 mM AMP-PNP, 1 mg/ml diluted 5× in buffer B (20 mM HEPES pH 8.0, 150 mM NaCl, 5 mM MgCl2); map at 15 Å
# [3] = target: T1, hLonΔ270 mutant (Δ1–270), human Lon lacking its first 270 amino acids (human)
# [4] = target: the molecule itself; assay: cryo-EM 2D class averages; hLonΔ270, 1 mg/ml diluted 5× in buffer B; 2D class averages (Relion) compared with projections of five and six fitted 3M6A subunits; no 3D map
molecule,measurement,setting,value
proteolytically inactive human mitochondrial Lon protease mutant hLon S855A (from UniProt P36776 68-959) (enzyme),stoichiometry N,[1],6
same,stoichiometry N,[2],6
β-casein (natural protein) RELEELNVPGEIVESLSSSEESITRINKKIEKFQSEEQQQTEDELQDKIHPFAQTQSLVYPFPGPIPNSLPQNIPPLTQTPVVVPPFLQPEVMGVSKVKEAMAPKHKEMPFPKYPVEPFTESQSLTLTDVENLHLPLPLLQSWMHQPHQPLPPTVMFPPQSVLSLSQSKVLPVPQKAVPYPQRDMPIQAFLLYQEPVLGPVRGPFPIIV,"stimulation of the ATPase activity of hLonΔ270 by β-casein (25 μg β-casein, 5 μg hLon, 37 °C)",[3],2 fold
same,"stimulation of the peptidase activity of hLonΔ270 (glutaryl-Ala-Ala-Phe-MNA) by β-casein (25 μg β-casein, 5 μg hLon, 37 °C)",[3],2 fold
"hLonΔ270 mutant (Δ1–270), human Lon lacking its first 270 amino acids (domain or fragment, UniProt P36776 271-959, looked up, primers Lon_271_FW and Lon_960_RV (to the stop codon); A few vector residues probably remain after PreScission cleavage (surmised from the primer); also called shortened hLon; source: in-fusion cloning into pOPINJ; not shown: 6×His-GST, N-terminal, cleaved) LMVEVENVVHEDFQVTEEVKALTAEIVKTIRDIIALNPLYRESVLQMMQAGQRVVDNPIYLSDMGAALTGAESHELQDVLEETNIPKRLYKALSLLKKEFELSKLQQRLGREVEEKIKQTHRKYLLQEQLKIIKKELGLEKDDKDAIEEKFRERLKELVVPKHVMDVVDEELSKLGLLDNHSSEFNVTRNYLDWLTSIPWGKYSNENLDLARAQAVLEEDHYGMEDVKKRILEFIAVSQLRGSTQGKILCFYGPPGVGKTSIARSIARALNREYFRFSVGGMTDVAEIKGHRRTYVGAMPGKIIQCLKKTKTENPLILIDEVDKIGRGYQGDPSSALLELLDPEQNANFLDHYLDVPVDLSKVLFICTANVTDTIPEPLRDRMEMINVSGYVAQEKLAIAERYLVPQARALCGLDESKAKLSSDVLTLLIKQYCRESGVRNLQKQVEKVLRKSAYKIVSGEAESVEVTPENLQDFVGKPVFTVERMYDVTPPGVVMGLAWTAMGGSTLFVETSLRRPQDKDAKGDKDGSLEVTGQLGEVMKESARIAYTFARAFLMQHAPANDYLVTSHIHLHVPEGATPKDGPSAGCTIVTALLSLAMGRPVRQNLAMTGEVSLTGKILPVGGIKEKTIAAKRAGVTCIVLPAENKKDFYDLAAFITEGLEVHFVEHYREIFDIAFPDEQAEALAVER",stoichiometry N,[4],6
